Read-outs that look alike come from different tables or passages of the source.

Experiment [1] concerns the target human PRLR expressed on cells (human) (UniProt P16471). In words: cell-based or functional assay.
Experiment [2] addresses murine PRLR expressed on cells (mouse) (UniProt Q08501). Nature of the experiment: cell-based or functional assay.
The target in experiment [3] is T1, rhesus monkey PRLR expressed on cells (rhesus monkey, UniProt F7HIU9 25-619).
T1 sequence: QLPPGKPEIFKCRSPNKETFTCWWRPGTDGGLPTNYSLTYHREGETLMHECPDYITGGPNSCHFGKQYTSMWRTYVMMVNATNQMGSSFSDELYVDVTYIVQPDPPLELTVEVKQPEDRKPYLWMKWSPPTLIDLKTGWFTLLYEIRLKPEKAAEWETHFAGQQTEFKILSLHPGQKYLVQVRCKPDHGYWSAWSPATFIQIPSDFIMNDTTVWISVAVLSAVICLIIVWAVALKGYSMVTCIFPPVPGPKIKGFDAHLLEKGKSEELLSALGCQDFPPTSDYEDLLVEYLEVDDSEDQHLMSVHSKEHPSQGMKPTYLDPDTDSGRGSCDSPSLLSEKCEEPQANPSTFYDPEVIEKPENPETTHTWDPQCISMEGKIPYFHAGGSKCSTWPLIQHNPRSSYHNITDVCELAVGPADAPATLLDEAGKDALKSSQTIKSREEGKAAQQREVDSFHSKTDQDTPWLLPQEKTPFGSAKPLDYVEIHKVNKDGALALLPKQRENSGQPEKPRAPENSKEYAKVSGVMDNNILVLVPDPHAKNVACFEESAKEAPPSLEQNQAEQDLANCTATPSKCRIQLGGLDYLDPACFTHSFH
In words: cell-based or functional assay.

The target of experiment [4] is human PRLR expressed on cells (human) (UniProt P16471). Nature of the experiment: flow cytometry on BaF3-human PRLR cells, IgG1 format.
The target is the same in experiment [5]. In words: flow cytometry on HEK293-human PRLR cells, IgG1 format.
The target in experiment [6] is T1, rhesus monkey PRLR expressed on cells. In words: flow cytometry on BaF3-rhesus PRLR cells, IgG1 format.
Experiment [7] deals with human PRLR expressed on cells (human) (UniProt P16471). In words: flow cytometry on human T47D breast cancer cells (natural PRLR), IgG1 format.
In experiment [8] the target is T2, extracellular domain of human PRLR (soluble, monomeric) (human, UniProt P16471 25-234).
T2 construct: also called Human ECD PRLR; ECD-PRLR
T2 sequence: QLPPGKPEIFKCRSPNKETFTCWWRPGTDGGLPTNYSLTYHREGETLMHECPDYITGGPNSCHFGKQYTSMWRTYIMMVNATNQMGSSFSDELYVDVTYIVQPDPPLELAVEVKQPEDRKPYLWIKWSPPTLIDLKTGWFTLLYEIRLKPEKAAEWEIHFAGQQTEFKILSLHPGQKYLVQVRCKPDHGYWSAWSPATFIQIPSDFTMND
In words: SPR (Biacore T100), antibody captured via anti-human IgG Fc, monovalent ECD as analyte, Example 13.
Method: (§1) Antibodies were immobilized onto a CM5 sensor chip through an indirect capturing reagent, anti-human IgG Fc. […] Approximately 5000 RU monoclonal mouse anti-human IgG (Fc) antibody were immobilized per cell. Each test antibody was injected at a concentration of 5 μg/ml at 10 μl/min for 10 sec to reach a capturing level of approximately 200 to 600 RU. […] Sensograms were generated after in-line reference cell correction followed by buffer sample subtraction. The dissociation equilibrium constant (KD) was calculated based on the ratio of association (kon) and dissociation rated (koff=kd) constants, obtained by fitting sensograms with a first order 1:1 binding model using BiaEvaluation Software (see Table 7).

Experiment [9] has as its target T3, extracellular domain of rhesus and cynomolgus monkey PRLR (Fc-His removed by Factor Xa digestion) (rhesus and cynomolgus monkey, UniProt P16471 25-234 (human entry)).
T3 construct: the fusion part was removed by Factor Xa before SPR; also called Rhesus/Cynomolgus PRLR; Rhesus and cynomolgus monkey ECD PRLR
T3 chain: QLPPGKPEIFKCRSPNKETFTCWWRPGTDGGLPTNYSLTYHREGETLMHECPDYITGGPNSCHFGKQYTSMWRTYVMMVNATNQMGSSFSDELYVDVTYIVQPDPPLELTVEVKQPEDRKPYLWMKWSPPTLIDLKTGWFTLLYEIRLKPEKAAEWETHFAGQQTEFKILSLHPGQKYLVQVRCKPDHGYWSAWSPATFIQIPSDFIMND
The experiment is described as above.
Method: as §1

The target in experiment [10] is T4, extracellular domain of murine PRLR (soluble, monomeric) (mouse, UniProt Q08501 20-229).
T4 construct: Expressed in HEK293 cells; also called Murine ECD PRLR; Mouse PRLR
T4 sequence: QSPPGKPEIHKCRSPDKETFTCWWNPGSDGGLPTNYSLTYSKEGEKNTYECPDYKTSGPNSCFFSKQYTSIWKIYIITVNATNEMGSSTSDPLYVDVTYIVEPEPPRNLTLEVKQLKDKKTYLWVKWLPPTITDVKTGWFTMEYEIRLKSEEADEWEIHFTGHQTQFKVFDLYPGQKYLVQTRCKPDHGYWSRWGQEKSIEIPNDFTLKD
The experiment is described as above.
Method: as §1

Experiment [11] addresses human PRLR expressed on cells (human) (UniProt P16471). Nature of the experiment: cell-based or functional assay. The source holds these as a separate data set.
In experiment [12] the target is murine PRLR expressed on cells (mouse) (UniProt Q08501). In words: cell-based or functional assay. The source holds these as a separate data set.
The target is the same in experiment [13]. In words: flow cytometry on BaF3-mouse PRLR cells, IgG1 format.
Experiment [14] has the same target. Nature of the experiment: flow cytometry on HEK293-murine PRLR cells, IgG1 format.
Experiment [15] deals with T2, extracellular domain of human PRLR …. Nature of the experiment: SPR (Biacore T100), antibody captured via anti-human IgG Fc, monovalent ECD as analyte, Example 10.
Method: (§2) Antibodies were immobilized onto a CM5 sensor chip through an indirect capturing reagent, anti-human IgG Fc. […] Approximately 5000 RU monoclonal mouse anti-human IgG (Fc) antibody were immobilized per cell. […] Sensograms were generated after in-line reference cell correction followed by buffer sample subtraction. The dissociation equilibrium constant (KD) was calculated based on the ratio of association (kon) and dissociation rated (koff=kd) constants, obtained by fitting sensograms with a first order 1:1 binding model using BiaEvaluation Software.
Experiment [16] addresses T3, extracellular domain of rhesus and …. The description is as above.
Method: as §2
The target of experiment [17] is T4, extracellular domain of murine PRLR …. The description is as above.
Method: as §2
Experiment [18] deals with human PRLR expressed on cells (human) (UniProt P16471). Nature of the experiment: flow cytometry on HEK293 cells expressing human PRLR, Example 9.
Experiment [19] concerns the target T1, rhesus monkey PRLR expressed on cells. Nature of the experiment: flow cytometry on Ba/F cells expressing rhesus monkey PRLR, Example 9.
Method: The cells were harvested, centrifuged and resuspended at approximately 2×10⁶ cells/ml in 1×PBS containing 3% FBS and 0.05% sodium azide (FACS buffer). […] For secondary antibody and autofluorescence controls, 50 μl FACS buffer was added to appropriate wells. 50 μl of cell suspension was added to each sample well. Samples were incubated at 4° C. for one hour, washed twice with cold FRCS buffer and resuspended in FACS buffer containing PE-conjugated goat anti-human IgG at a 1:100 dilution. Following a 30 min incubation at 4° C., cells were washed twice with cold FACS buffer, resuspended in FACS buffer containing 1 mg/ml propidium iodide (Invitrogen, San Diego, Calif.) and analyzed by flow cytometry.
The target in experiment [20] is T2, extracellular domain of human PRLR …. In words: SPR: ECD-PRLR captured by immobilized Mat3 or HE06642, human PRL passed over.

B1: antibody HE06642 as IgG1 molecule (antibody, V domains shown)
VH: EVQLVESGGGLVQPGGSLRLSCAVSGFTFSSYGMSWVRQAPGKGLEWVATVSSGGTYTYYPDSVKGRFTISRDNSKNTLYLQMNSLRAEDTAVYYCARHRGNYYATYYYAMDYWGQGTLVTVSS
VL: DIVLTQSPDSLAVSLGERATINCKASKSVSTSGYTYMHWYQQKPGQPPKLLIYLASNRESGVPDRFSGSGSGTDFTLTISPVQAEDVATYYCQHSGELPPSFGQGTKLEIKR
Turning to B1, the IC50, inhibition of LHRE luciferase reporter gene activity in HEK293 cells stably transfected with human PRLR in experiment [1] is 4.6 nM. The IC50, inhibition of prolactin-induced proliferation of BaF3 cells stably transfected with human prolactin receptor in [1] is 4.2 nM. This molecule also registered an IC50, inhibition of LHRE luciferase reporter gene activity in HEK293 cells stably transfected with murine PRLR in experiment [2] greater than 1330 nM. Also, in experiment [3], the “IC50, inhibition of prolactin-induced proliferation of BaF3 cells stably transfected with the rhesus prolactin receptor” value is 206 nM. The EC50 in [4] was found to be 0.2 nM; in [5], 1.6 nM; in [6], 3.2 nM; in experiment [7], 0.8 nM.

B2: antibody HE06642 (isotype not stated) (antibody, V domains shown)
VH: EVQLVESGGGLVQPGGSLRLSCAVSGFTFSSYGMSWVRQAPGKGLEWVATVSSGGTYTYYPDSVKGRFTISRDNSKNTLYLQMNSLRAEDTAVYYCARHRGNYYATYYYAMDYWGQGTLVTVSS
VL: DIVLTQSPDSLAVSLGERATINCKASKSVSTSGYTYMHWYQQKPGQPPKLLIYLASNRESGVPDRFSGSGSGTDFTLTISPVQAEDVATYYCQHSGELPPSFGQGTKLEIKR
notes: Kappa light chain; also called he06.642-2 of WO 2008/022295
For the molecule B2, the dissociation constant Kd in [8] stood at 0.8 nM; in [9] it was 17 nM; in experiment [10] it was 15 nM. For the same molecule, the koff amounted to 0.000533 s⁻¹ in [8], 0.00579 s⁻¹ in experiment [9] and 0.0091 s⁻¹ in experiment [10].

B3: antibody Mat3 in IgG1 format (antibody, V domains shown)
VH: EVQLLESGGGLVQPGGSLRLSCAASGFTFSSYWMHWVRQAPGKGLEWVSDIARLSSYTNYADSVKGRFTISRDNSKNTLYLQMNSLRAEDTAVYYCARGLDARRMDYWGQGTLVTVSS
VL: QSVLTQPPSASGTPGQRVTISCTGSSSNIGAGYVVHWYQQLPGTAPKLLIYRNNQRPSGVPDRFSGSKSGTSASLAISGLRSEDEADYYCAAWDDSLNGWLFGGGTKLTVLG
notes: also called Mat3 IgG1
For B3, the % inhibition of prolactin-induced proliferation at 1 µg/ml (=6.7 nM) in [11] turned out to be 100%. In experiment [11], this molecule gave an IC50, inhibition of LHRE luciferase reporter gene activity in HEK293 cells stably transfected with human PRLR of 0.5 nM. The molecule also gave an IC50, inhibition of prolactin-induced proliferation of BaF3 cells stably transfected with human prolactin receptor in experiment [11] of 0.7 nM. The IC50, inhibition of LHRE luciferase reporter gene activity in HEK293 cells stably transfected with murine PRLR in experiment [12] worked out at 1.3 nM. The same molecule came in with an IC50, inhibition of prolactin-induced proliferation of BaF3 cells stably transfected with the murine prolactin receptor in [12] of 3 nM. Besides, in experiment [3], the “IC50, inhibition of prolactin-induced proliferation of BaF3 cells stably transfected with the rhesus prolactin receptor” value was found to be 4.6 nM. Moreover, the EC50 was 0.1 nM in experiment [4]; 0.2 nM in [13]; 0.8 nM in [5]; 0.1 nM in experiment [14]; 1.2 nM in experiment [6]; 0.4 nM in experiment [7].

B4: antibody Mat3 as human IgG molecule (isotype not stated) (antibody, V domains shown)
VH: EVQLLESGGGLVQPGGSLRLSCAASGFTFSSYWMHWVRQAPGKGLEWVSDIARLSSYTNYADSVKGRFTISRDNSKNTLYLQMNSLRAEDTAVYYCARGLDARRMDYWGQGTLVTVSS
VL: QSVLTQPPSASGTPGQRVTISCTGSSSNIGAGYVVHWYQQLPGTAPKLLIYRNNQRPSGVPDRFSGSKSGTSASLAISGLRSEDEADYYCAAWDDSLNGWLFGGGTKLTVLG
notes: Lambda light chain; also called neutralizing prolactin receptor antibody Mat3
For the molecule B4, the Kd in experiment [15] came out at 0.9 nM; in experiment [16], 7.1 nM; in experiment [17], 0.4 nM; in [8], 1.3 nM; in experiment [9], 9.6 nM; in [10], 0.4 nM. Besides, the koff came to 0.00044 s⁻¹ in [15]; 0.0011 s⁻¹ in [16]; 0.00021 s⁻¹ in experiment [17]; 0.000414 s⁻¹ in experiment [8]; 0.00102 s⁻¹ in experiment [9]; 0.000164 s⁻¹ in experiment [10].

B5: antibody Mat3 as human IgG2 molecule (antibody, V domains shown)
VH: EVQLLESGGGLVQPGGSLRLSCAASGFTFSSYWMHWVRQAPGKGLEWVSDIARLSSYTNYADSVKGRFTISRDNSKNTLYLQMNSLRAEDTAVYYCARGLDARRMDYWGQGTLVTVSS
VL: QSVLTQPPSASGTPGQRVTISCTGSSSNIGAGYVVHWYQQLPGTAPKLLIYRNNQRPSGVPDRFSGSKSGTSASLAISGLRSEDEADYYCAAWDDSLNGWLFGGGTKLTVLG
notes: also called IgG2 Mat3
On to B5, for which the EC50 in experiment [18] came out at 0.53 nM; in experiment [19] it was 2.94 nM.

B6: human prolactin (ligand, UniProt P01236 29-227, looked up)
chain: LPICPGGAARCQVTLRDLFDRAVVLSHYIHNLSSEMFSEFDKRYTHGRGFITKAINSCHTSSLATPEDKEQAQQMNQKDFLSLIVSILRSWNEPLYHLVTEVRGMQEAPEAILSKAVEIEEQTKRLLEGMELIVSQVHPETKENEIYPVWSGLPSLQMADEESRLSAYYNLLHCLRRDSHKIDNYLKLLKCRIIHNNNC
notes: also called PRL; Human PRL
Regarding B6, the binding result in [20] was “binds”.

Values taken from patent US20140141003A1 (Bayer, published 2014).
